Experimental data taken from patent US20100137420.

Legend:
recombinant cystatin C = molecular target: T1, recombinant cystatin C
T1 chain: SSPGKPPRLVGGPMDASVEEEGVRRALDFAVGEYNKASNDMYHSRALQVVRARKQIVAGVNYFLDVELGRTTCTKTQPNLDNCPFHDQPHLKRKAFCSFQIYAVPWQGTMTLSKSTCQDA

[1] = molecular target: cathepsin B (from THP-1 cell lysates), P07858

B1: MMP-2 (protein)
chain: YNFFPRKPKWDKNQITYRIIGYTPDLDPETVDDAFARAFQVWSDVTPLRFSRIHDGEADIMINFGRWEHGDGYPFDGKDGLLAHAFAPGTGVGGDSHFDDDELWTLGEGQVVRVKYGNADGEYCKFPFLFNGKEYNSCTDTGRSDGFLWCSTTYNFEKDGKYGFCPHEALFTMGGNAEGQPCKFPFRFQGTSYDSCTTEGRTDGYRWCGTTEDYDRDKKYGFCPETAMSTVGGNSEGAPCVFPFTFLGNKYESCTSAGRSDGKMWCATTANYDDDRKWGFCPDQGYSLFLVAAHEFGHAMGLEHSQDPGALMAPIYTYTKNFRLSQDDIKGIQELYGASPDIDLGTGPTPTLGPVTPEICKQDIVFDGIAQIRGEIFFFKDRFIWRTVTPRDKPMGPLLVATFWPELPEKIDAVYEAPQEEKAVFFAGNEYWIYSASTLERGYPKPLTSLGLPPDVQRVDAAFNWSKNKKTYIFAGDKFWRYNEVKKKMDPGFPKLIADAWNAIPDNLDAVVDLQGGGHSYFFKGAYYLKLENQSLKSVKFGSIKSDWLGC
cleavage of recombinant cystatin C (recombinant cystatin C): MMP-2 cleaved cystatin C at three unique sites
cathepsin B activity (fluorogenic Ac-Arg-Arg-AFC assay) [1]: Cathepsin D and MMP-2 alone had no effect on cathepsin B activity
